Reference: paper PMC7550718

Key:
[1] = target: SHP1 R136Q (human) (UniProt P29350)
[2] = target: SHP1 R30Q (human) (UniProt P29350)
[3] = target: SHP1 R30Q R136Q (human) (UniProt P29350)
[4] = target: Full length wild type SHP1 (human) (UniProt P29350)

With “SIRPα di-phosphopeptide corresponding to residues 427 to 460 of human SIRPα (H2N-ITpYADLNLP-PEG8-HTEpYASIQTSK-NH2)” the increase of phosphatase activity on DiFMUP with 0 to 3,000 nM SIRPα peptide (fold at 3 μM) [1] was 3.5 fold, the increase of phosphatase activity on DiFMUP with 0 to 3,000 nM SIRPα peptide (fold at 3 μM) [2] was 1.8 fold and the increase of phosphatase activity on DiFMUP with 0 to 3,000 nM SIRPα peptide (fold at 3 μM) [3] was 1.1 fold. The increase of SHP1 phosphatase activity on DiFMUP with 0 to 3,000 nM SIRPα peptide (fold) [4] was 35 fold.
